In patent publication EP1073463B1:
One block for each substance: values may come before it.

How the values were obtained:
[1] = target: human CD3 on Jurkat cells (human) (UniProt P07766); experiment: competition with 125I-UCHT1 on Jurkat cells, SP2/0 preparation at 100 nM
[2] = target: human CD3 on Jurkat cells (human) (UniProt P07766); experiment: competition with 125I-UCHT1 on Jurkat cells, SP2/0 preparation at 1 nM
[3] = target: human CD3 on Jurkat cells (human) (UniProt P07766); experiment: competition with 125I-UCHT1 on Jurkat cells, COS-7 preparation at 100 nM
[4] = target: human CD3 on Jurkat cells (human) (UniProt P07766); experiment: competition with 125I-UCHT1 on Jurkat cells, COS-7 preparation at 1 nM
[5] = target: human CD3 on Jurkat cells (human) (UniProt P07766); experiment: competition with 125I-UCHT1 on Jurkat cells, competitor at 100 nM
[6] = target: human CD3 on Jurkat cells (human) (UniProt P07766); experiment: competition with 125I-UCHT1 on Jurkat cells, competitor at 1 nM
human FcR = experiment: cell-based or functional assay
[7] = target: human CD3 on Jurkat cells (human) (UniProt P07766); experiment: cell-based or functional assay

Chain of UniProt P07766 (P07766 23-207): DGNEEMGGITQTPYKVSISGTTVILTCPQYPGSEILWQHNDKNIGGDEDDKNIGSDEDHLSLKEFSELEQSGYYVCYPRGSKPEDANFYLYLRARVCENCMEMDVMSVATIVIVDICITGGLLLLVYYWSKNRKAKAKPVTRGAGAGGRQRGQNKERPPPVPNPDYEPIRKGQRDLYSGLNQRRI

- % of 125I-UCHT1 bound to cells [1]: 0%
- % of 125I-UCHT1 bound to cells [2]: 80%
- % of 125I-UCHT1 bound to cells [3]: 0%
- % of 125I-UCHT1 bound to cells [4]: 80%
Substance: scUCHT1, chimeric anti-human CD3 single chain antibody (UCHT1 VL-linker-VH fused to human IgM Fc µCH2 to µCH4) (from UniProt P01871 106-453) (scFv)

- % of 125I-UCHT1 bound to cells [5]: 0%
- % of 125I-UCHT1 bound to cells [6]: 80%
- T-cell proliferation of human PBMCs ([3H]thymidine incorporation), concentration at peak (human FcR): 100 ng/mL
- T-cell proliferation of human PBMCs ([3H]thymidine incorporation), lowest active concentration (human FcR): 0.1 ng/mL
Substance: UCHT1 monoclonal antibody (anti-human CD3)

Substance: sFv-DT390, anti-CD3 single-chain immunotoxin with truncated diphtheria toxin (from UniProt P00588 33-422)
- IC50 (toxicity, inhibition of protein synthesis) [7]: 48 pM
- Protein synthesis (% of controls), Jurkat cells, 1 x 10^-10 M, no serum (% of controls) [7]: 18
- potency relative to UCHT1-CRM9 (fold of UCHT1-CRM9 potency) [7]: 0.0625
